Results as given in patent publication EP4733322A1 (dated 2026).

Target: T1, KRAS G12V peptide on HLA-A*11 (human)
T1 peptide: VVGAVGVGK
Test: cytokine release

- binding result: recognises
B1: CR-KVA11-N03 (TCR, V domains shown)
Valpha: RKEVEQDPGPFNVPEGATVAFNCTYSNSASQSFFWYRQDCRKEPKLLMSVYSSGNEDGRFTAQLNRASQYISLLIRDSKLSDSATYLCVVPGGTGGGNKLTFGTGTQLKVEL
Vbeta: DTAVSQTPKYLVTQMGNDKSIKCEQNLGHDTMDWYKQDSKKFLKIMFSYNNKELIINETVPNRFSPKSPDKAHLNLHINSLELGDSAVYFCASSHWGAQETQYFGPGTRLLVL
